Assay results as given in patent US20160289698A1 (TRUSTEES OF DARTMOUTH COLLEGE, published 2016).

T1: ARR21 (subfamily-3) (Arabidopsis, UniProt Q9LYP5 1-613, limits assumed)
T1 sequence (looked up): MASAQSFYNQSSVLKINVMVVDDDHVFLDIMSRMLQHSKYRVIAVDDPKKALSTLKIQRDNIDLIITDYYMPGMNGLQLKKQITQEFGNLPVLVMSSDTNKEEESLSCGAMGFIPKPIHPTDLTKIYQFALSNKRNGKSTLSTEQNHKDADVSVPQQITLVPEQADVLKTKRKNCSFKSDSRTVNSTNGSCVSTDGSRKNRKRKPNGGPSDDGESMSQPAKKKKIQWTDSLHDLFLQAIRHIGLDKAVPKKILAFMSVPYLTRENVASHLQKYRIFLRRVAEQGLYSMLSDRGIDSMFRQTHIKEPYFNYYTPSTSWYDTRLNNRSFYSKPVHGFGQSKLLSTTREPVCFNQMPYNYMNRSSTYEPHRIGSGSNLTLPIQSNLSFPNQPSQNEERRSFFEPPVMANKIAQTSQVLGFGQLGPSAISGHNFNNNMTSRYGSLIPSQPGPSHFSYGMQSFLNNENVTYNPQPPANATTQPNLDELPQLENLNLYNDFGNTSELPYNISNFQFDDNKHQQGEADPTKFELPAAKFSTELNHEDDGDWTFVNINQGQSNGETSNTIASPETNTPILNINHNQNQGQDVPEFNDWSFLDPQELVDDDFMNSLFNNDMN

T2: ARR12 (Arabidopsis, UniProt P62598 1-596)
T2 construct: YFP^N or YFP^C fusion of the full-length cDNA in BiFC; also called AtARR12; type-B response regulator AtARR12
T2 sequence (looked up): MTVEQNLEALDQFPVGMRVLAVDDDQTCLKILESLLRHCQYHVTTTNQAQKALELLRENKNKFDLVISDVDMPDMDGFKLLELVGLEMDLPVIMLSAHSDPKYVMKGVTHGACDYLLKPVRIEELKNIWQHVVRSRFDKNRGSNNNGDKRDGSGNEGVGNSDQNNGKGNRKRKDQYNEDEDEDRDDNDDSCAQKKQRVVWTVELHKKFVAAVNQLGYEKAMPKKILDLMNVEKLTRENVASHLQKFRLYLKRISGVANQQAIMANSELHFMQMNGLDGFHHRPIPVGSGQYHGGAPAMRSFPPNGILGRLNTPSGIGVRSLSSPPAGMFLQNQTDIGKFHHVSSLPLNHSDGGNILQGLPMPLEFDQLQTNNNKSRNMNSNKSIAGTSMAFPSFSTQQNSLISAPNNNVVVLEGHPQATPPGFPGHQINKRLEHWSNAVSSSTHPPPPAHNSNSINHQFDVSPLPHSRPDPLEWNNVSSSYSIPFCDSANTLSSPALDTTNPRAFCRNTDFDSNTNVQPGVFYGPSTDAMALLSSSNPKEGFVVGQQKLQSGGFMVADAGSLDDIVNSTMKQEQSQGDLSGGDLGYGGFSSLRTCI

T3: ARR10 (Arabidopsis, UniProt O49397 1-552, limits assumed)
T3 construct: also called type-B response regulator ARR10
T3 sequence (looked up): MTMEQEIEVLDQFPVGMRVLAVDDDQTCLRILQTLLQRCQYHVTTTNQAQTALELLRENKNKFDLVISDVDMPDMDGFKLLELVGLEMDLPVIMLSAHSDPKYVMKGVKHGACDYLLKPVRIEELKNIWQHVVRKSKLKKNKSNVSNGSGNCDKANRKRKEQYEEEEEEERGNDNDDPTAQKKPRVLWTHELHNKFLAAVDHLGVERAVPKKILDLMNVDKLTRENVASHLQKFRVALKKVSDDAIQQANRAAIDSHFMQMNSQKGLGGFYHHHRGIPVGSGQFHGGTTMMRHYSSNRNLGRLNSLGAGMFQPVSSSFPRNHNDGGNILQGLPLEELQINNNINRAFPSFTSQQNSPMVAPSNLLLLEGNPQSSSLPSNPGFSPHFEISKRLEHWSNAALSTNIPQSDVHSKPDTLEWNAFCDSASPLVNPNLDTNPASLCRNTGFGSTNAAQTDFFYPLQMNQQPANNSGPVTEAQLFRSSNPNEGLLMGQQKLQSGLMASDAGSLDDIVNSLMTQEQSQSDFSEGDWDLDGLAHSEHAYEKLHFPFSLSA

T4: ARR20 (type-B ARR subfamily-3) (Arabidopsis, UniProt Q9LZJ8 1-426, limits assumed)
T4 sequence (looked up): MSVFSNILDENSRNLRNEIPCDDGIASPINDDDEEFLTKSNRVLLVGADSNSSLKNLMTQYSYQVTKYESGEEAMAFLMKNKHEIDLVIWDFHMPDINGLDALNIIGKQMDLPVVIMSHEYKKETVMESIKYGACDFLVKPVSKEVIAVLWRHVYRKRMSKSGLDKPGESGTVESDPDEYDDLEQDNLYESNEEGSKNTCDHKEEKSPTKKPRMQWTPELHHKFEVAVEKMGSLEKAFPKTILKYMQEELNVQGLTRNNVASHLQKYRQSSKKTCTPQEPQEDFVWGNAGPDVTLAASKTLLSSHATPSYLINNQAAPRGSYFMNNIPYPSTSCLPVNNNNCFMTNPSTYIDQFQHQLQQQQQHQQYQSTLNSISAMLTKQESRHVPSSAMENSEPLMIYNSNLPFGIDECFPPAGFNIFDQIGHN

T5: ARR2 (Arabidopsis, UniProt Q9ZWJ9 1-664, limits assumed)
T5 construct: also called type-B response regulator ARR2
T5 sequence (looked up): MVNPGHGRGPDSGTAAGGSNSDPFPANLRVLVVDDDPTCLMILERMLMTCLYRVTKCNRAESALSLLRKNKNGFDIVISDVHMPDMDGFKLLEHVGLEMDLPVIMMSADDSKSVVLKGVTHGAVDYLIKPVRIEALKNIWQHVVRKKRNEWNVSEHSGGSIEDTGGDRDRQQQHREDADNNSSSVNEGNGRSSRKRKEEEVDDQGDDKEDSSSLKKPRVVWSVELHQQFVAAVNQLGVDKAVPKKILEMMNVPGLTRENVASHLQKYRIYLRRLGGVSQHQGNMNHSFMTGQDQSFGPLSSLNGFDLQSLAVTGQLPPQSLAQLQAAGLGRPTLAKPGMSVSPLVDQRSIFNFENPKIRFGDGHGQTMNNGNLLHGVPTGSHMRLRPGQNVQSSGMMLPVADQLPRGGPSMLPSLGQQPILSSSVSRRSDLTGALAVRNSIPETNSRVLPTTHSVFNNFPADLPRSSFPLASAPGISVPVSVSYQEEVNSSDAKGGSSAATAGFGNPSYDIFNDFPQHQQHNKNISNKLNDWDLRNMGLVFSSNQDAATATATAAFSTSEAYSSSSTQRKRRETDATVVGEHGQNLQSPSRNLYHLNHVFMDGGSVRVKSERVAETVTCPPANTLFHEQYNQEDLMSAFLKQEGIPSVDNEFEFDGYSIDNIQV


Columns and labels:
Experiment in all cases: yeast two-hybrid (LexA-KMD bait, B42-ARR prey, X-gal)
ARR21 (subfamily-3) = molecular target: T1, ARR21 (subfamily-3)
Text: (§1) The DUPLEX-A™ system (OriGene Technologies) was used for yeast two-hybrid analysis of interactions. KMD cDNAs were cloned into the pGilda bait vector, which produces an in-frame fusion with the LexA DNA-binding domain. Type-B ARR coding sequences were cloned into the pJG4-5 prey vector, which produces a B42 activation domain. The yeast strain EGY48 (MATa, trp1, his3, ura3, leu2::6 LexAop-LEU2) that contains the lacZ reporter plasmid pSH18-34 was transformed with the appropriate “bait” and “prey” plasmids. Interactions were tested on 5-bromo-4-chloro-3-indolyl-p-D-galactopyranoside (X-gal) medium (Ryu, et al. (2005) Cell 120(3): 395-406).
(§2) The KMD proteins also interacted with ARR20 (type-B ARR subfamily-3), but not with ARR19 (subfamily-2) and ARR21 (subfamily-3). […] All four KMD proteins interacted with both ARR1 and ARR12 in a BiFC assay. Strong fluorescence was detected in the nuclei of cells, consistent with the subcellular localization of the type-B ARRs (Hwang & Sheen J (2001) Nature 413(6854):383-389; Mason, et al. (2004) Plant Physiol. 135(2):927-937).

ARR12 = molecular target: T2, ARR12
Text: as §1, §2

ARR10 = molecular target: T3, ARR10
Text: as §1, §2

[1] = molecular target: T4, ARR20 (type-B ARR subfamily-3)
Text: as §1, §2

ARR2 = molecular target: T5, ARR2
Text: as §1, §2

Binder	binding result (ARR21 (subfamily-3))	binding result (ARR12)	binding result (ARR10)	binding result [1]	binding result (ARR2)
KISS ME DEADLY 3 (KMD3) (other, Arabidopsis, UniProt O80582 1-409, looked up, Full-length protein; LexA fusion in yeast two-hybrid, YFP^N or YFP^C fusion in BiFC; also called At2g44130) MTMEVSKKKGGDFQQCHELIPGLPSELALECLVRVPFQFQSAMRSVCRSWRSLLSDSSFIQERRRCGKTELLLCLVQPLTPPIPASKSVDETLMVDEKKSEDESHPRVFCTPRFGLSVYNAAMSTWHRVAFPEEEQIPLFCECVVLQDAGKILLIGGWDPETLQPTRDVYVLEFAGRKWRRGAPMKESRSFFACASVSPTKVYVAGGHDDQKNALRSAEVYDVEKDEWSSVTPMTEGRDECQGFAVGMGLRFCVLSGYGTESQGRFRSDGEIYDPATDSWSRIDNVWRFPDTSPRGRTAGDFRSSSTLWCFTDTDLQSERRWETNDDSRNLKLDLQSIQLPMTGSSVFAGSLGGESVVMIGGKRESEGEGEGGVMMKMTTEKKMGKWSHHVHIPCDFSTLPFSHASIYV	no binding	binds	binds	binds	binds
KISS ME DEADLY 4 (KMD4) (other, Arabidopsis, UniProt Q9M1Y1 1-418, looked up, Full-length protein; LexA fusion in yeast two-hybrid, YFP^N or YFP^C fusion in BiFC; also called At3g59940) MGVSKKKSGEIRGDLIPGLPEELAIECLVRVPFQFHSSIKSVCRSWKCVISSRSFIKERIGFGKAESLLCLVQPLTSPPSPAMMEGGEMSQKKKEEEEGESQMTQQLLQPRITGTPLYGLSVYNATLDTWHRVAIPERIPLFCECVAIQDAGKVLLIGGWDPETLQPVRDVFVLDFFAGEGSGRRFRRGRPMSAARSFFACASVGSTKVYVAGGHDDQKNALRSAEVYDVEKDEWSMLPPMTEGRDECHGFSMATDPGFCVLSGYGTETQGQFRSDGEIYDPITNSWSTIENVWPFPDLSPRGRTAAAAAEFPGDFRGCRLWCFIDSERQSQPHWEVEDDSMKWKVIMDTIRLPVTTMTSVFAGSLSGQAVAMIGGGGEESGTMMVKTTAEKNGGKWSHVNTPSGFSSLPFSCSSIYV	no binding	binds	binds	binds	binds
